This is an account of results in the domain aggregation screens of Martell et al. (2025).

A short description of the data set: soluble fraction after stress (log2 fold change); higher = more stays soluble; pooled small domains, quantitative proteomics. The conditions noted are these: stress: pH 4. The essentials: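 Pooled custom libraries of small protein domains were stressed at pH 4 and then measured by high-throughput quantitative proteomics. The fold change in the amount of each domain that stays soluble after the acid stress serves as a measure of aggregation propensity. Fold changes are given on a log2 scale, and higher values mean more of the domain stayed soluble.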
Turning to “HMGGEEINMINLVGLSQSEAENQLAKLKLKIGQVTAEYSDKPSGTVLKQSISANNKVKKGADIDIVVSKG”, the “soluble fraction (log2)” value was 0.207.

“HMGGELLSLRRIGTLTGISYPTLLRYVARYGEQIPQTGTGRSRRFPPAAVPVFQELRATRGRAPRATA”: the “soluble fraction (log2)” value worked out at 0.0768.

For “HMGGEPKALLFAGVETREMAEITQRLEAADIPYEIREDGGSIYVARSEVFNARMMLSADGLPS”, the “soluble fraction (log2)” value was found to be 0.233.

Consider “HMGGFNATTLQNIEELRRSLSDADQFGRHEVIETIGGSDSRAGKLLKKMLEAGIIEQVKGHGKGRYRFKRT”, for which the “soluble fraction (log2)” value is 0.0979.

As for “HMGGGEYTVAKGDTLWKIAAQTLGSPTRYAEIYNLNKDVIEETARGRGKRDSSNGHWLFPGTALKIPGT”, the “soluble fraction (log2)” value is -0.234.

Regarding “HMGGGFLVPSLVGKSLEEARSLSELRGFKLEVGDYVISSEYPAGRVTRQNPANGAKGQEGDVIKVEVSS”, the “soluble fraction (log2)” value was 0.153.

With “HMGGGRELGLDPETGKKISVRLGKFGPFVQLGESGEEDKPVFANLGKNQSIATLSLEEAIALLARPK”, the “soluble fraction (log2)” value amounted to 0.189.

As for “HMGGGVSSSLAGNVFKVLLPAGSVVEQGQAVIVLEAMKMETEVNAPKSGSVSSVFVNEGDTVEVGDLLFAI”, the “soluble fraction (log2)” value was -0.162.

“HMGGKWKAIIIYHLKNGPKRFGELRRALISSTETVLSNQLKQLEQDGLVSRQVFGTKPPLKTVYSLTDFG”: the “soluble fraction (log2)” value was -0.906.

For the sequence “HMGGKWKLRILLALENSAQDALRYGEIKNIVSGITDMMLSQSLRELTADGLIERRQYQEIPPKVEYRLS”, the “soluble fraction (log2)” value is -0.868.

As to “HMGGKWKPIILYYININSVARYSELKRFIPSINERMLTRQLRELEEDNLIERKVYPIVPPKVEYRLTEYGK”, the “soluble fraction (log2)” value is 0.0222.

In the case of “HMGGKWSMPIIYILSKGKMRFKELERSVEGINTRMLVKELKNMEANGIVTREVFPTVPPTVEYALT”, the “soluble fraction (log2)” value was -0.178.

With “HMGGKYKGVIIGHLIDKTLRYNELQKLISHATPKMLIQQLKELEADGIIQRKLYPVVPPKTEYSLTERG”, the “soluble fraction (log2)” value was -0.0376.

“HMGGLAEGTKITLQNTVNVRASMGEDAEKIGTAYAGEKVTVIMSYAEGWTKVTWNDKTGYIKTSLL”: the “soluble fraction (log2)” value was -1.04.

On to “HMGGLAHPASGEEMEHLFAHLEGELLKSGFLFPPDKAAGMMRNIRAMLTRADFTDQEVRTLRGMIVALSRG”, for which the “soluble fraction (log2)” value is -0.794.

Consider “HMGGNDALEIAKSNPQVIEVLGEPVTKDGMGSYSVNYKNGHKTSEATIPIEGPNGTATLHVKTSGSDDAL”, for which the “soluble fraction (log2)” value was 0.22.

In the case of “HMGGNKILTWKTDAATTRNQVPINERKEGLEISYKNEERNWVAEKYVGTSFSDDKWGVDYNWNQD”, the “soluble fraction (log2)” value was -0.559.

Take “HMGGPAGPDFTYTGDDLTRIDYDDGSYKVFTYDAGKLSQIDFTSGGTTTRKTFVYSGDTLIRVDQTI”: the “soluble fraction (log2)” value is -1.43.

On to “HMGGPEPIPAQIREGDTVYVTKFKQLGLVLKISEDTAEVQIGPLRATVAKTELSKVDATATEHR”, for which the “soluble fraction (log2)” value was -0.0107.

Take “HMGGQFVKVEVIAQIFGVTVRRVQQLTQEGVVKTTEIPGEGRRYELVPTIKTYIQYLSDKAY”: the “soluble fraction (log2)” value was determined as 0.0375.

Take “HMGGTFLVRILDPALNIRAQPSLTARINGVIRDKSVYTIVATSFEPKTQITWGKLKSGAGWISIGSKYVKK”: the “soluble fraction (log2)” value was determined as 0.0406.

Consider “HMGGVTVQNRETHVNSTVNVRSEQTTESERVALAYQGDAITQIESYENGWSKVEYKGLSGYVMTEYL”, for which the “soluble fraction (log2)” value was -0.819.

Consider “HMGGYLIGDVAQMVGLSRDALRFYEKKGIIRADKKENGYRYYSEDDIYRLMYILYHRKMNTSLEEIGGLMS”, for which the “soluble fraction (log2)” value is -0.478.

For “HMGHKKLTIELQDEIIVLPKELEKYNLTVSDDKTSLIYTYKSRGEKTGITDLLRDIKDAGLRLKDLITEQ”, the “soluble fraction (log2)” value was -0.0229.

As to “HMGHTVHAVPEAADRQRLDVFVGNLHPTISRAYIQKLSKEDQILVNGKPEKAGFKLRTGHSVSVPDMSE”, the “soluble fraction (log2)” value is 0.177.

For “HMGIAEAKRVIVRTLHDVLGPEADFLTEKIDVAQTAAELRVHAEKYRDMLVDMGKPKKSAAFWEAFEAALP”, the “soluble fraction (log2)” value was -0.65.

Turning to “HMGIAKLLTEQEYKIALLAAERRTNAMIAEEMNLTENTVKTHLKHIFDKVGIAGNAKNKRHLLADMMNSER”, the “soluble fraction (log2)” value was 0.0405.

For the sequence “HMGIDISAFSETALQVLRLQAAGYTAKEISEKLHITPRTVKYHASQNYRKLDAKNLVDAVQIAQALHI”, the “soluble fraction (log2)” value was -0.171.

On to “HMGIEQVELASRVRDAVDSLPHHLREIILLSYFQKMSYNQIAETLQVPLGTVKSRLHAAVASFAQAWTQSS”, for which the “soluble fraction (log2)” value was -0.658.

Take “HMGIFAQTTKWRDIYTVKKKDTIFGIANKYGLSLPELMEANPEMKQEGYMLQKGTTLFIPFASD”: the “soluble fraction (log2)” value was -0.0354.

In the case of “HMGIGSTLTDGVRVYASDDEIVVNAPAESDVRIFNAGGAQLYAGRVADVRVAVAKGLYVVTVDGRSTKITV”, the “soluble fraction (log2)” value came to 0.217.

For “HMGIILDWELFEQFADKLKRKKVDFVIEPYLRFEGRRGEQSTLFIKDPSGNYLEFKAFKNIDMLFEK”, the “soluble fraction (log2)” value is -1.38.

For “HMGIPIEAYHESLHRHYIDLWELLDTGKETLIDAEGNEVDKIHLLNAIRFNVNGMLHELLKE”, the “soluble fraction (log2)” value is -1.48.

Regarding “HMGIQYVASGHYARMETDAQGVSRLFPPESGAPDESDRLAALSPEVLTRLILPLGDFAPEDVEEMAVD”, the “soluble fraction (log2)” value is -0.294.

On to “HMGIRAFDPEAFDERLKEFFSMIAPYKKLDTRSLQPHFPHHAKEVAERIRQLAEAGKIKVDGFYISEL”, for which the “soluble fraction (log2)” value was -0.0943.

Take “HMGIRDIHITVNGESLKLSKKQNYIFVDIFDFYPFDLSILGGSKLITTINGEQAEFTSPLKDGDVVELYWK”: the “soluble fraction (log2)” value is -0.977.

For the sequence “HMGISNEETFLLEKMSSGRRYSRKELDNLMGFEKTKTIRLLGSLINKGLVVAEGVNRARRYIR”, the “soluble fraction (log2)” value is -0.00925.

Consider “HMGISQAQAMQALRKLIEEEDKHTPLSDQTLMERLKAAGIPLARRTIAKYRESLGIPSAAQRK”, for which the “soluble fraction (log2)” value is -0.0327.

In the case of “HMGISVEVPDLKNMSVAEAGSLLKNSGLSYAVVDSDYVKTISPGKILDQNPGRGLRVKKGRIVYLTINSL”, the “soluble fraction (log2)” value is -0.283.

“HMGITDHIYQDLKKRLENGNYPAGTRFPSESTLADEFSVNKMTMNKIVSMLAEQGYLIRGNRGAGTRVAEN”: the “soluble fraction (log2)” value is -0.0244.

With “HMGITPSIEMILEYFAFKESSETEANKFFNYYSSIGWLVGGKTKMKDWKASARNWIMNQNKFQ”, the “soluble fraction (log2)” value was -1.01.

Regarding “HMGIVAPGTLKHLHAVGNSYYPDWETKRHELVTAVTKGRTSSSKELYEAEANRLITRIEELLMTAAQSV”, the “soluble fraction (log2)” value was -0.548.

For the sequence “HMGIVTMPGQGSKMRFDFDATGDLPSSTSWRGMFAYANNTKRAYVSTGTTMGGYNGWRQLIAMDEYGNYQT”, the “soluble fraction (log2)” value worked out at 0.22.

Regarding “HMGKEIEAPDFKNMTLKEAKIAAKEYKIRIKKGDEVVSEEVEKGRIVSQDPDAGTTIKTGSTVTVNISKGL”, the “soluble fraction (log2)” value was determined as 0.0135.

For “HMGKELSTVVVPDLTGLSVLEARNVLTKVGLQLTPSGAGIAFKQIPTPGTRLTLGATVTVYFVATGY”, the “soluble fraction (log2)” value is -1.27.

As to “HMGKELTVPDVVGQNYVSAQEKLIAGGFQVEVADSVYDSRYGRGVVVDQNPHKDTRVKPGRLIYVTVNA”, the “soluble fraction (log2)” value is 0.0611.

For “HMGKEWPTPDNVEEWKKLVKKARLWPIQADQAQSEETRERNRKKWELFVAYAKRFGYRAGIGETGKPFVNN”, the “soluble fraction (log2)” value is 0.164.

“HMGKINEIVANNIAILRKKNRLSLEELGKLSGVSKSMLALIEKGDGNPTLGILWKIANGLGVPFDELTRRP”: the “soluble fraction (log2)” value stood at 0.0455.

As to “HMGKLGENIKRIREGMGLSQRQFGELIGKSDSQIWSYENDRTDILASTLYKIAAVANVDFNNLMAGIIP”, the “soluble fraction (log2)” value is -1.35.

“HMGKLYRDRYAPLEPDGARAGDRVFIISLEKEGTLERIDLPRKTATVLLGSSIRSTFPLDDLYQPRG”: the “soluble fraction (log2)” value is -0.163.
